The conditions of the data set: N-glycosylation at N297.

“Also recorded” adds a separate entry of the source.

Turning to “Maxatezo / Atezolizumab (anti-PD-L1 human IgG1) heavy chain: N297A (Atezolizumab) compared with A297N back-mutation + GGGS insertion (Maxatezo)”, the expression_or_secretion entry is reported as “decreases, 1.3 g/L (aglycosylated) vs up to 4 g/L (Maxatezo)”; the other result is on record as “increases”; the stability_or_folding result is “decreases, Tm1 71.01 °C (Maxatezo) vs 63.55 °C (Atezolizumab), 7.46 °C difference; also recorded: decreases, Tagg 71.2 °C (Maxatezo) vs 60.7 °C (Atezolizumab), 10.5 °C difference”.

Values taken from publication PMC7952408.
